Laboratory results reported in publication PMC8068094.

Tests used:
[1] = target: Munc13L with C-terminal Halo tag (Munc13-1 residues 529-1735, C1-C2B-MUN-C2C domains, residues 1408-1452 replaced by EF) (UniProt Q62768); experiment: two-colour TIRF co-localisation on a supported lipid bilayer
[2] = target: Munc13L with C-terminal Halo tag (Munc13-1 residues 529-1735, C1-C2B-MUN-C2C domains, residues 1408-1452 replaced by EF) (UniProt Q62768); experiment: two-colour step-bleaching of co-clusters on a supported lipid bilayer

- Manders' coefficient (SNAP25:Munc13L) at 50 nM Munc13L [1]: 0.2
- Manders' coefficient (SNAP25:Munc13L) at 1 μM Munc13L [1]: 0.6
- Manders' coefficient at 1 μM Munc13L [1]: 0.7
- stoichiometry N (mole SNAP25/mole Munc13L) [2]: 0.8
Substance: single-cysteine (S28C) version of SNAP25^WT labeled with AlexaFluor555 (from UniProt P60879 1-206) (natural protein)
